Test results reported in the supplement of paper PMC12455559.

Assay: purified protein yield per well (BCA); higher = higher soluble expression
How it was run: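 Purified protein yield per well is reported, as measured by the Pierce Rapid Gold BCA kit. The enzymes came from E. coli C41(DE3) autoinduction cultures of 2 mL with 100 µg/mL kanamycin, held at 37 °C for 2 h and 18 °C for 40 h, then lysed and purified on Ni-charged magnetic beads with SUMO protease release. The detection threshold is 25 ug (0.1 mg/mL), and lower values are under it.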

Sequence | purified protein yield per well [µg]
MHPSFPESEDPAPAARHSAAPLSRDCAHPPARRSTHRTAHRIAHRTARPDRSRRRIRGVLAAATAALLAVAGLTLIPNASAAENPFERGPAPSASSLAAARGPFATSQVTVSSRDASGFGGGTIYFPTSGDEGTFGAVAVAPGFTASRSSMAWLGPRLASQGFIVFNIDTITRSDQPASRGRQLLAALDFLVERSPIRDRVDPDRLAVMGHSMGGGGALEAAESRPTLRAAIPLTPWNLNKNWSRVQVPTMVIGAERDTIASVRFHSEPFFDSLPSDLDKAYLELNNASHFAPNIPNATISSFSVAWLKRFVDDDTRYEQFLCPPPRPAGEISEYQDTCARAS [TEP191] | < 25
RPRDSAPANPYQRGPDPTVAMIESSTGPFATTSASVPAGHGFNGGTVYYPTDTSLGTWGALAIVPGYSALFANEEAWMGPWLSSFGFVVLGVETNSRTDSADARGTELLAALDYLTTQSPVRDRVDPNRLAVLGHSAGGAGAMLAAENRPSLKAAIGLAPGSPVGNLSLATDKVPTMVLGGQNDTVVTPSYLSGLYATMPASTQSVFAQIAGADHVYYTHPNNVEMKLLIPWLKTFLDSDTRHPPFLCPAPPDPRSISIYTPKCPYVPGGGTPPGGGNTGPLHAVGAAKCLAAPPAGAAGTQVTIGGCDGRAGQTWTRTAAAELTVTPAGTPLCLDASGQGTSPGTKVIVWSCNGQANQQWNLNADGSVTAARSGLCLDVTGASTAEGAPVELWSCNGGSNQRWSLG [TEP095] | < 25
ADNPYQRGPDPTRSSVAASRGTFATAQVGVPAGNGFGGGVIYYPTDTSQGTFGAVAIVPGYTAKWAAEGAWTGPWLASFGLVVIGIDTNSANDFDVARDRQLPAALDYLAQRGSVRGRVDTTRLAAMGHSMGGGGALNAALRRPSSKAAVGSAPYKPSGNLASDRVATLLLAGQNDTTVTPSYVDGLHRSIPATTEKGYVELSGAGHAFPTRANSTQMRVVTPWLKVFLDDDARYSQFLCPLMDSAGINRYGSTCPLLPPDGSTGSSSSLVGSGFGKCLDAGAGQDRSKVTITSCTGGGGQKWVFNTNGTITDPQSGRCLDVDARGTADNTAVATWTCHGESNQVWTRRA [ESM189] | < 25
RSAPDAAAPRAASGNPYQRGPDPTVASIEATRGPFATAQLNVAPGNGFNGGVVSYPTDTSLGTWGALAIVPGYSALCADEEAWMGPWLSSFGFVVICVETNTRTDSADARAAELLAALNWLTTQSPVKGQIDPGRLSVLGHSAGGAGAILAAERQPSLKAMIGLAPGFPGNGLSMATDTVPTLVIGGQNDTVVTPSYLSGLYATLPGTTQSGFAQIAGADHVYYTRPNNVEMKLLIPWLKLFVDSDTRYSPFLCPALPDPSAVSIYQPKCPYTPPGGSTPPPSTSSGPPMSPAGGRPVHAVGAGKCLDVPGLSATAGTQTDIRTCDGGAGQLWTRASAGRLTVQTGGSTMCLDAAGRGASPGTKVQIWPCNGGSNQQWNVNANGTITGTQSGLCLDVTGGSTADGALVELWTCNGGSNQQWTSQ [TEP076] | < 25
MSATRGTFATAQLSVPAGNGFGGGVIYYPTDTSQGTFGGVAIVPGYSALFANEEAWMGPWLASFGFVVIGIETNSRTDGADARATQLLAALDYLTQRSSVRDRVDSSRLSVVGHSAGGAGVILATGQRPSLKAAVGLAPGSPTGNLSLANDRVPMMFISGQRDTTVTQSYLNGLYTTLPASTPSAWVEITGVDHLFATRANTTEMRTLIPWLKIFVDNDTRYTQFLCPLMDSSNISMYRNKCPYVPPGGPSPSPSPSPSPSPSPSPSPSPSPSPSPSPSPSPSPSPSPSPSAGACTASYRTTNSWPGGHQGEVTVTAGGSAISGWTVRWTLGSGQTVSQVWNGTLSVSGSTVTVTNASYNGSLPASGSTTFGFLGTGTASAPSLTCTSRP [ESM002] | < 25
QNPYERGPAPSTASLEASRGPFATSSFTVSRPSGYGAGTVYYPTNAGGTVGAIAIVPGYTARQSSINWWGPRLASHGFVVITIDTNSTSDQPASRSRQQLAALDQVATLNSTSSSPIYNKVDTSRMGVMGWSMGGGGSLISAQNRSSLKAAAPQAPWNSSTNFSSVTVPTLIFACESDAIARVGSHASPMYNSMTRNPKQFMEIEGGSHSCANSGNSNQALIGKKGVAWMKRFMDNDTRYTSFACSNPNSTRVSDFRVARCS [ESM114] | < 25
QTNPYERGPAPTTASLEASRGPFSISSFTVSRPSGYGAGTVYYPTNAGGTVGAIAIVPGFLARQSSINWWGPRLASHGFVVITIDTNSTLDQPASRSRQQLAALDQVAALARTSSSPIYNRVDTTRMGVMGWSMGGGGTLISAQNRPSIKAAAPQAPYNSSTNFSSVTVPTLIFACENDTVAPVNRHASPFYSSMSRNSKQYLEINGGSHSCANSGNSNQPLIGKKGVAWMKRFMDNDTRYTPFACANPNSTRVSEFRTANCS [ESM073] | < 25
QIGPDPTSASLNATAGSFAVSTSNVTLARGFGGGTIYYPTTAGRYGVVAISPGFTATQSSIAWLGRRLATHGLVVITMNTNSTLDQPASRATQLMAALNYVVNSASSTVRARVDSTRLAVAGHSMGGGGALIAAEDNPTLKAALPLTPWNLSTSFTQVRVPTLIVGADGDTVASVAAHARPFYASLPASTFKAYAELNGATHFTPNSTNTPIGRYGVTWMKRFVDADTRYSPFLCGAAHTAYATALVFDRYNQNCPY [ESM068] | < 25
QTTAPTSASLNASAGPLSVSTASVTAPRGFGGGTIYYPTTQARYGVIAISPGFTATQTSIAWLGRRIATHGFVVITLNTLTTLDQPDSRANQLMAALNHVINSSSSAVKARIDTSRLAVAGHSMGGGGALIAARDNPSLKASYPLTPWNINSAFSTVRVPTMIVGADGDTVAPVGTHARPFYAALPGATSKAYGELNGATHFSPNSTNTPIGRYGVAWMKRFLDGDTRYSTFLCGTEHTRYATALVFDRYNQNCPY [ESM122] | < 25
VQNGPAPTLAALKADGPYAITSQAVAGNGFGAGTIYTPTAAGKYALVAICPGFVSAQSTMAGLAKRLATHGFVVVAISTNTLLDFPSSRATQLLAALKTVSALNTGAVAGKVDTTRQAVSGWSMGGGGTLEAAGATPGLVAAVAFAPWDTSTTKMKVNKVPAAIIGGSSDAVAPVASHSQKFYD [ESM063] | < 25
APAPATAAAADNPYERGPDPTEDSIEAARGPYDVAETSVSSWVVSGFGGGTVYYPRETDDGTFGAVAVAPGYTASQSSMAWLGPRLASQGFVVFTIDTLTRLDQPASRGRQLLAALDYLTERSAVRNRIDASRLGVMGHSMGGGGTLEAAADRPSLQAAVPLAPWNLDKTWGELRVPTMIIGADGDSIAPVSSHSEPFYESLPGGLDRAYLELNNADHFTPNLPDTTLAKYSLSWLKRFIDNDTRYEQFLCPLPRPGWYIEEYRGTCPHLS [TEP124] | < 25
VANPYQRGPAPTEASVTAKLGPFAIASKKVGAFSHPGIREGTVYYPTDTSQGTFGAIAVAPGFVSPEALVSWYGPRLASQGFVVMTLEITTGFDLPEARAAQLLSALDFMKKDNTIKNRIDPNRLAVMGWSMGGGGTLRAAQQSASLKAAIPLAPWDLGMDWSNVRVPTMIIGGDNDFVASPGFHAEPFYTQLADEKAYLELENAGHFTFTSDNNTIAKYAISWMKRWVDEDTRYTQFLCPPPPAPSPTIQKYRQTCPY [DP046] | < 25
SPPIVRYDYAPGKYSGNGPYSYSTYQLPGWSPGATVYYPTNASPPFSGIVFCPPYTGTQSNFAAWGPFFASHGIVLVTMDTSSTLISVDQRAIEQRMVLDLLKAERNRPGSPLYNKIDPERVGAMGWSMGGGASWINSAEYPGLKTAMSLAGHHLTAINPNAKGYGTQCPTIIFCGLLDQTILGGMLQSETVYYNIPSGIPKVFYEVSTAGHFVWYSPTAANSHVAELALAFQKTFLDGDTRWEQYIEEPLFD [TEP034] | < 25
QSNPYQRGPAPTASSLEASRGPLAISQFTVSRPSGYRAGTVYYPTNAGGTVGAIAVVPGYTAYQSDINWWGPRLASWGFVVITIDTNSTLDQPSSRSRQQLAALDQVAALSRTSSSPIYNKVDTSRMGVMGWSMGGGGSLISTENRPSLKASIPFAPWNSTSSFSSVVTPTFIIACQSDIIAPVASHADDFYDSLSRPPKMFLEIRGGSHYCANSSNNDKGLLGSKGVAWMKRYIDNDTRFTSYACSNPNTLAVSDFRTARCS [ESM104] | < 25
QNPYERGPAPTTSSLEASRGPFSTSSFTVSRPSGYGAGTVYYPTNAGGTVGAIAIVPGFTARQSSINWWGPRLASHGFVVITIDTNSTLDQPASRSRQQLAALDQVATLARTSSSPIYNKVDTTRMGVMGWSMGGGGSLISAQNRPSLKAAAPQAPWNGSTSFGSVTVPTLIFACENDSIAPVGSHASPMYNSMTRNPKEFIEIDGGSHSCANSGNSNQALIGKKGVAWMKRFMDNDTRYTSFACANPNSTRVSDFRVARCS [ESM066] | < 25
ATTSFRRGPDPSAASIRAANGPFAIAKTTVARQAGFGGGDIYAPTDTSRGTFGAVAIAPGFTATRSSLAWLAPRIASQGFVVFNIDTLTTSDQPAQRGRELLAALDFLTGSSTARAKIDRTRLAVMGHSMGGGGTLEAAKARPSLKAAVPLTPWDLTKNFATVKVPTMIIGAQSDTIAPPSRFSDQFFASLPAATNKGYLELAGASHFAPNIPNPTIASTSIAWLKRFVDGDTRFEQFLCPGPSSNGISEYQTNCPHKA [ESM129] | < 25
VQIGPAPTSAALNKDGSFSVSSSSVSMLSARGFGSGTIYYPSTSGQYGVIAVCPGFTGTSSSISWFARRLASHGFVTIAMNTTTTLDQPASRATQLAAALKYVLNSSSSTVRSRIRAADRGVAGHSMGGGGTLIASQSDSTLRVGIPMTPWNLSTNFSSVKVPQMIFGADGDTIAPYASHARPFYNSLSKAPKAYGLLKSATHFTPNATDQRIGRYGVAFAKRFVDGDTRYSPFLCGSEHNSYATSSKFATYLSNCPY [ESM148] | < 25
ENPHERGPDPTEESVTAPTGPFDTDTENVSSLVSGFGGGTIYYPTDDSEGTFGGVVVAPGYTASESSMSWYGERIASQGFVVFTIDTNTRYDQPNSRGRQMESALDYLVEDSDVDDMVDGDRLALMGHSMGGGGTLAAAEDRPELRAAIPLTPWHLSKDWSDVEVPTMIVGAENDSIASTRSHAVPLYESLDEDLDSTYLELRNATHFAPNISNTTIAKYSISWLKRFVDDDVRYEQFLCPAPDTGFGTDFSDYRDSCPHGGSV [DP041] | < 25
MLRVTHHPPPGGTDSARTRTALPAPGAAPPRPGLPRRRGRLVTLAAAGIAAALVGLFTMTVATGTASAADNPYQRGPDPTRSSVASVNGPFANTSVAVPTGYGFNGGRIYYPTDTSQGTFGAVAISPGYNALFSAELAWMGPWLASHGFVVIGIETNSRNDFDTARGTQLLAALDYLVQQSPVRDRIDPNRLAVSGHSMGGGGALSAALRRSSLKAAVGIAPYSPSSNLANDRVPTMVFAGQADTVVTPSYATGLYNSLPVTTESAYLEVAGADHGFMVGRSNPVLIRTMLPFLKMFVDNDARYSQFLCPLADNNGVVSYRSTCPLLPSTPTTPPPTPSDTPPPTPSQTPTSSPTGNPPGTASLIVGAQSNRCLDVPNASRANGTRVQLWDCNRQANQSWTYTSGKQLRVYGDMCLDAAGSGNGAAVQIYGCHSQTNQQWNVNANGTISSVQSGRCLDVWSTANGAQVQLYDCHGQTNQRFTLTPLT [TEP176] | < 25
